The target of experiment [1] is B-cell lymphoma extra-large protein (Bcl-xL), first 209 amino acids with N-terminal avitag (UniProt Q07817). Nature of the experiment: equilibrium ELISA, divalent model.
The target is the same in experiment [2]. Nature of the experiment: Kd2 (monovalently bound mAb to a second Bcl-xL), divalent model, reverse assay only, known [L]0.
The target is the same in experiment [3]. In words: forward equilibrium assay, Kd-only fit, monovalent model (said to fit poorly).
Experiment [4] shares this target. In words: Kd1 (free mAb to Bcl-xL), divalent model, forward and reverse equilibrium assays combined, known [L]0.
The target is the same in experiment [5]. In words: equilibrium AMMP, divalent model.
For experiment [6] the target is unchanged. In words: reverse equilibrium assay, divalent model; percent of monovalently bound mAb that does not interact with immobilized Bcl-xL.
Experiment [7] has the same target. Nature of the experiment: forward equilibrium assay, Kd and [L]0 fit simultaneously, monovalent and divalent models.
The target is the same in experiment [8]. In words: forward equilibrium assay, Kd-only fit, divalent model.
The target is the same in experiment [9]. In words: Kd2 (monovalently bound mAb to a second Bcl-xL), divalent model, reverse assay only, Kd and [L]0 fit simultaneously.
The target is the same in experiment [10]. Nature of the experiment: Kd1 (free mAb to Bcl-xL), divalent model, forward and reverse equilibrium assays combined, Kd and [L]0 fit simultaneously.

As usually defined, the Kd is the free concentration of one partner at which half of the binding sites on the other are occupied at equilibrium, for simple one-to-one binding.

Values joined by “and” are separate entries in the source; they are usually repeats but may differ in a detail not shown here. Equal values may be shown once.

Sequence of B-cell lymphoma extra-large protein (Bcl-xL), first 209 amino acids with N-terminal avitag (Q07817 other isoform, or with tags, fused parts or gaps): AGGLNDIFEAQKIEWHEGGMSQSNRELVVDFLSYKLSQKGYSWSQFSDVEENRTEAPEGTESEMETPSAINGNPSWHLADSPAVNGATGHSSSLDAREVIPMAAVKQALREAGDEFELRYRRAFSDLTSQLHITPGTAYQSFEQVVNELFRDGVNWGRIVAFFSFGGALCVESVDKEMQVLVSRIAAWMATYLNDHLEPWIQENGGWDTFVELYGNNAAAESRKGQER

Regarding “54H6 monoclonal antibody against Bcl-xL (commercial)”, the Kd stood at 0.02 nM in experiment [1]; 3.3 nM in experiment [2]; 0.038 nM in experiment [3]; 0.021 nM in experiment [4]; 0.012 nM in experiment [5]; 0.011 nM in [7]. For the same substance, the Kd was 0.014 nM in experiment [8], 4 nM in [9] and 0.019 nM in [10]. Also, in experiment [6], the percent of monovalently bound mAb not interacting with immobilized Bcl-xL is 74% and 73%.

These data come from patent US20180172683A1, “METHODS FOR ANALYZING THE INTERACTION BETWEEN A TARGET PROTEIN AND A LIGAND” (UNIVERSITY OF SOUTHERN CALIFORNIA, priority 2015, published 2018).
